Consider 4 molecules from patent publication US20230128075A1.

Changes are numbered by the printed parent chain.

In this assay the target is HSP70 (antigen; source and nucleotide state not stated) (Homo sapiens (Human)) (UniProt P0DMV8). In words: biosensor, anti-human Fc capture, antigen 100 nM.
Chain of HSP70 (antigen; source and nucleotide state not stated) (Homo sapiens (Human)) (P0DMV8 whole entry): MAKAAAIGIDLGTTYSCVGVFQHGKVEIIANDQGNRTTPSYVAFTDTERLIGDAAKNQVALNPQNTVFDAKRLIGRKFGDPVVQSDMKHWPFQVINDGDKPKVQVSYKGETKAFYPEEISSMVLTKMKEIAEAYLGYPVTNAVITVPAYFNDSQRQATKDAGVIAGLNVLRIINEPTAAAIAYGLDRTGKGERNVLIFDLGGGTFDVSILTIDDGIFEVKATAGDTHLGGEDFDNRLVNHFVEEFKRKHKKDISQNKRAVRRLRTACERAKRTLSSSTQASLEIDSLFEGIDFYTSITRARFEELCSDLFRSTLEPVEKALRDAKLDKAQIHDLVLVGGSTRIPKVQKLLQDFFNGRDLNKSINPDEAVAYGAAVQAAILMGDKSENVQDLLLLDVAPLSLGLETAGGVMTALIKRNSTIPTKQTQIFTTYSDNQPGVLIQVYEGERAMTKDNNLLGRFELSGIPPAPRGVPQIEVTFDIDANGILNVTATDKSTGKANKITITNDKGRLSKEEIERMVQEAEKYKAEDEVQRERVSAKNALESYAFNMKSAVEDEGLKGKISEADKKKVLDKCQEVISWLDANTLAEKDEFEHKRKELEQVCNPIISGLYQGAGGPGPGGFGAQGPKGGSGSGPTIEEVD

B1: h77A-1.52 (antibody, V domains shown)
VH: QIQLVQSGVEVKKPGASVKVSCKASGYIFTNYGMNWVRQAPGQGLEWMGWINTYTGEPRYADDFKGRFTFTTDTSTSTAYMELRSLRSDDTAVYFCARYDHRMDYWGQGTLVTVSS
VL: EIVLTQSPDSLAVSLGERATINCKSSQSLLNSGTRKNYLAWYQQKAGQSPKLLIYWTSTRESGVPDRFSGSGSGTDFTLTIDSLQAEDVAVYYCKQSYTLYTFGGGTKVEIK
Turning to B1, the % Diss is -115% and the X = 1495 was 0.0133 nM.

B2: h77A-1.80 (antibody, V domains shown)
VH: B1 VH with V9A, I28T, R59K, R102V
VL: B1 VL with A40S, A46P, L53I
For the molecule B2, the % Diss is -8.84% and the X = 610 was determined as 0.0181 nM.

B3: h77A-1.79 (antibody, V domains shown)
VH: B1 VH with V9A, I28T, N31K
VL: B1 VL with A46P, T99N
With B3, the % Diss was -37.4% and the X = 610 came out at 0.0131 nM.

B4: h77A-1.54 (antibody, V domains shown)
VH: B1 VH with V9A, I28T, N31K, R59K, A61G
VL: B1 VL
B4: the % Diss is -41.2% and the X = 610 came out at 0.0068 nM.
